Laboratory results from doi:10.1101/671792 (bioRxiv, 2019).

B1: TFG-1 (Trk-fused gene 1) PB1 domain, residues 1-95 (domain or fragment)
chain: MNGQLDLSGKLIIKAQLGEDIRRIPIHNEDITYDELVLMMQRVFRGKLLSNDEVTIKYKDEDGDLITIFDSSDLSFAIQCSRILKLTLFVNGQPR
B2: p62/SQSTM1 PB1 domain, residues 1-102 (domain or fragment)
chain: MASLTVKAYLLGKEDAAREIRRFSFCCSPEPEAEAEAAAGPGPCERLLSRVAALFPALRPGGFQAHYRDEDGDLVAFSSDEELTMAMSYVKDDIFRIYIKEK
B3: MBP-tagged wild-type AtNBR1-PB1 (domain or fragment)
chain: MESTANALVVKVSYGGVLRRFRVPVKANGQLDLEMAGLKEKIAALFNLSADAELSLTYSDEDGDVVALVDDNDLFDVTNQRLKFLKINVNAGVST
B4: Arabidopsis thaliana NBR1 PB1 domain, residues 1-95 (domain or fragment)
chain: B3 chain

Assays:
sedimentation = biological target: the molecule itself; test: sedimentation
[1] = biological target: B4; test: pull-down

binding result [1]	Binder	binding result (sedimentation)
	B1	binds
	B2	binds
binds	B3	
	B4	binds
